PMC9943657, “Structural basis for topological regulation of Tn3 resolvase” (Nucleic Acids Research, 2021)

Biological target: the molecule itself
Test: crystal structure; Form I crystals, P4(3)2(1)2, 3.4 Å; Tn3 resolvase mixed with site III DNA duplex in a 2:1.25 molar ratio; one dimer-site III DNA complex in the asymmetric unit; step: two subunits in the DNA-bound dimer

B1: Tn3 resolvase (wild-type, with SHHHHHH added after the natural C-terminus) (enzyme, transposon Tn3, UniProt P0ADI2 1-185, looked up)
chain: MRIFGYARVSTSQQSLDIQIRALKDAGVKANRIFTDKASGSSTDREGLDLLRMKVEEGDVILVKKLDRLGRDTADMIQLIKEFDAQGVAVRFIDDGISTDGDMGQMVVTILSAVAQAERRRILERTNEGRQEAKLKGIKFGRRRTVDRNVVLTLHQKGTGATEIAHQLSIARSTVYKILEDERAS
notes: Tn3 resolvase, wild type, encoded by the Tn3 transposon; GenBank CAA23885.1; The 7 C-terminal residues (SHHHHHH) were disordered in the crystal structure; also called WT Tn3 resolvase; source: E. coli Rosetta DE3 pLysS from plasmid pSA1121; not shown: SHHHHHH (Ser-His6), C-terminal, kept
- binding result: binds
